Data on one molecule can be found in patent US20180311371A1 (Hoffmann-La Roche, published 2018).

As usually defined, the EC50 is the concentration that produces a half-maximal response. Read a low EC50 as a more potent agent.

In test [1] the target is T1, human TPBG extracellular domain, His6Avi, biotinylated (human, biotinylated).
T1 construct: also called huTPBG; human TPBG-AviHis
T1 chain: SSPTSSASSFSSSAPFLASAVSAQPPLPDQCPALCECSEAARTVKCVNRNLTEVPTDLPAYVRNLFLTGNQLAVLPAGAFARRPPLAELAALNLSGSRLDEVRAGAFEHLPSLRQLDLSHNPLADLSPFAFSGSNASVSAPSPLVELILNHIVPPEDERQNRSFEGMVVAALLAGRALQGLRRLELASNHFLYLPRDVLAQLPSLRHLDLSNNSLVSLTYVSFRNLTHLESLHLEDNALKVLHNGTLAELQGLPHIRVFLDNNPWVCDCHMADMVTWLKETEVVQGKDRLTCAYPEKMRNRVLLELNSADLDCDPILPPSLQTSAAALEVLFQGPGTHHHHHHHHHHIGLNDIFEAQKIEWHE
Nature of the test: ELISA; biotinylated TPBG-AviHis on streptavidin plate; Fab titrated from 2 µg/ml. In general terms: In an ELISA, binding on a coated surface is turned into a signal by an enzyme label.

In test [2] the target is T2, minipig TPBG extracellular domain, His6Avi, biotinylated (minipig, biotinylated).
T2 construct: also called mpTPBG; minipig TPBG-AviHis
T2 chain: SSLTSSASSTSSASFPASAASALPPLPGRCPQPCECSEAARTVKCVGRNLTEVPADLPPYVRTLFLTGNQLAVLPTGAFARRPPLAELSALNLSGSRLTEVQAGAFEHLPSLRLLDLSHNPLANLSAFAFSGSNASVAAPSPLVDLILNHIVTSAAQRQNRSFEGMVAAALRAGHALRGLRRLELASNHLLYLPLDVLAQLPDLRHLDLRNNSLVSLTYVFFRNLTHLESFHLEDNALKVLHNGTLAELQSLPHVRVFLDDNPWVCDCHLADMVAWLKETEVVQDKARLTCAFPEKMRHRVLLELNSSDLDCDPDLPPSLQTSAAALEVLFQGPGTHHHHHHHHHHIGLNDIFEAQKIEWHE
Described as above.

B1: anti-TPBG antibody 091, Fab fragment (Fab, V domains shown)
VH: EVHLLESGGGLVHPGGSLRLSCAASGFTFRSDAMHWVRQAPGKGLEWVSGVSGSGGSPYYADSVKGRFTISRDDSKTTLYLQMNSLRAEDTAVYYCATGGSIAGSYYYYPMDVWGQGTTVTVSS
VL: DIQMTQSPSSLSASVGDRVTITCQASQDISNYLNWYQQKPGKAPKLLIYAASTLQIGVPSRFSGSGSGTDFTFTISSLQPEDFATYYCQQANSFPLTFGGGTKVEIK
notes: also called Fab2
For the molecule B1, the results for the EC50 in test [1] and in test [2] were 0.0277 µg/mL and 0.0618 µg/mL, respectively.
